These results are taken from paper PMC4147313.

Assay [1] concerns the target formyl-peptide receptors (FPRs) of CHO-K1 cells (Chinese hamster (endogenous in CHO-K1)).
Assay [2] concerns the target formyl-peptide receptor (FPR) (human (endogenous in SKOV-3)) (UniProt P21462).
The target is the same in assay [3]. This is another data set of the same source.
The target in assay [4] is formyl-peptide receptors (FPRs) of CHO-K1 cells (Chinese hamster (endogenous in CHO-K1)). The source holds these as a separate data set.

Chain of UniProt P21462 (P21462 whole entry): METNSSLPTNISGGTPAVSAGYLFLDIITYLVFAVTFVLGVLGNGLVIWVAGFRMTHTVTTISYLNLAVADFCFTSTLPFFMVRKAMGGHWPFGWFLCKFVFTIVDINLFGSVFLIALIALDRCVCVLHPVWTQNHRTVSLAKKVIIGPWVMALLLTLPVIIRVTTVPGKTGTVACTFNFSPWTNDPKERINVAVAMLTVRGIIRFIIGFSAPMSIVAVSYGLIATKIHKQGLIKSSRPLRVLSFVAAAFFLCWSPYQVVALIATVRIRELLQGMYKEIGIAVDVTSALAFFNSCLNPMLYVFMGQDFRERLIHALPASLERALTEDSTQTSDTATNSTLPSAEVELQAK

For “truncated uPAR lacking the D1 domain and exposing the 84-95 sequence (uPARD2D3) on CHO-K1 cells (domain or fragment)”, the reduction by 10 nM RERF peptide of the Cell Index of CHO-K1/D2D3 cells invading matrigel toward serum (xCELLigence, after 18 hrs) (% reduction of Cell Index) in assay [1] was 83.
In turn, “urokinase receptor (uPAR) (from UniProt Q03405 23-305)” gave a reduction of migration of SKOV-3 cells toward 10% FBS by RERF peptide, 10 fM to 10 pM (35% at 10 fM, 60% at 10 pM) (% reduction of cell migration) in assay [2] of 60. The same molecule came in with a reduction by 10 nM RERF peptide of the Cell Index of SKOV-3 cells invading matrigel toward serum (xCELLigence, 18 hrs); anti-uPAR84-95 polyclonal antibody reduced it by 50% (% reduction of Cell Index) in assay [3] of 86.
In turn, “wild type, full length uPAR (D1D2D3) on CHO-K1 cells (from UniProt Q03405 23-305) (receptor)” came in with a reduction by 10 nM RERF peptide of the Cell Index of CHO-K1/D1D2D3 cells invading matrigel toward serum (xCELLigence, after 18 hrs) (% reduction of Cell Index) in assay [1] of 75.
Regarding SRSRY [SRSRY peptide (uPAR 88-92, Ser-Arg-Ser-Arg-Tyr)], in assay [4], the migration of wild type CHO-K1 cells toward 10 nM SRSRY (Boyden chamber, 4 hrs, 37°C), percent of basal (% of the basal cell migration) came to 177.
